This is an account of results in article PMC2776655 (Circulation research, 2009).

Series [1] deals with the molecule itself. Kind of series: SDS-PAGE in non-reducing conditions.
Series [2] addresses T1, VEGFR-3 (protein used in isothermal titration calorimetry) (UniProt P35916 25-775).
T1 sequence (looked up): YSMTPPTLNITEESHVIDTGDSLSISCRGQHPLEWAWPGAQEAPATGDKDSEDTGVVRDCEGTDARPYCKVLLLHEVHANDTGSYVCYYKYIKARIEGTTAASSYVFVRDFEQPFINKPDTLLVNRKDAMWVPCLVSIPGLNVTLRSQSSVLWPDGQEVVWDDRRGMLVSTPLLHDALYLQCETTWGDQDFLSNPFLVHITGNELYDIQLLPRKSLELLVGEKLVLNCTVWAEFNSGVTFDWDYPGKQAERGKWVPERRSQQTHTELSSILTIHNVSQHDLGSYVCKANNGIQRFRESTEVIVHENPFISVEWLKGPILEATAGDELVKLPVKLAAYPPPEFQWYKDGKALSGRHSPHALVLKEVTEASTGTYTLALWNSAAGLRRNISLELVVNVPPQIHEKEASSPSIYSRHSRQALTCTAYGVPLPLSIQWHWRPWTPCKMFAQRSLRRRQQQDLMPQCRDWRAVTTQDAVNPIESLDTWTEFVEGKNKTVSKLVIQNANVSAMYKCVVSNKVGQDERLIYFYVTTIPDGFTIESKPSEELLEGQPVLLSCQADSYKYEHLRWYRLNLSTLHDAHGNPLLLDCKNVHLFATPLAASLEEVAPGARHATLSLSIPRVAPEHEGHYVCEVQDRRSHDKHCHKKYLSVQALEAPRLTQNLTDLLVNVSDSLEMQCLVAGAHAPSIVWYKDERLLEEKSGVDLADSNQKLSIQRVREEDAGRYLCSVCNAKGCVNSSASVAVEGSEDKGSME
Kind of series: ITC. On the technique in general: In ITC the heat of successive injections is recorded.

Another series has as its target T2, VEGFR-3-Ig (UniProt P35916 25-775).
T2 sequence (looked up): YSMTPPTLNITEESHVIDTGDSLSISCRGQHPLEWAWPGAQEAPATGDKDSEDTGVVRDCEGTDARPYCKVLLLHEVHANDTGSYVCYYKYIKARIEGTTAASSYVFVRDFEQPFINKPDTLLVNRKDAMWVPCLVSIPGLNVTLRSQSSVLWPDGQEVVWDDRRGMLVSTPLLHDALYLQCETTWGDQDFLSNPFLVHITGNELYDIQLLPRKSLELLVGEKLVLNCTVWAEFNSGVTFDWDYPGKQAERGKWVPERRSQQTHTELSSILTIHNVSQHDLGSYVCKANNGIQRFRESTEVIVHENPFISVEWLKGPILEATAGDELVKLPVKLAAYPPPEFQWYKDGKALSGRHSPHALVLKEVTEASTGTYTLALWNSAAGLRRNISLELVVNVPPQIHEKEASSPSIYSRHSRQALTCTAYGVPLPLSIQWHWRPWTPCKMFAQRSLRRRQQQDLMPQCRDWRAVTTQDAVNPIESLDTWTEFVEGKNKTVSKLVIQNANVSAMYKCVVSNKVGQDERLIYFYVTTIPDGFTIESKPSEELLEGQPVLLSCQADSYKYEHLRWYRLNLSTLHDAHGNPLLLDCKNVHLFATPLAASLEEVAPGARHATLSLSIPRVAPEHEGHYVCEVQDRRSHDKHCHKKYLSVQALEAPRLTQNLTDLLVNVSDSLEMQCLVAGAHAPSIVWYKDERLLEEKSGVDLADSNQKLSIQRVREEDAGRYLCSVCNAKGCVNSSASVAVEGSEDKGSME
Kind of series: ELISA.

The target in a further series is VEGFR-2-Ig (UniProt P35968 20-764). Kind of series: ELISA. On the technique in general: ELISA stands for enzyme-linked immunosorbent assay.
Chain of VEGFR-2-Ig (P35968 20-764): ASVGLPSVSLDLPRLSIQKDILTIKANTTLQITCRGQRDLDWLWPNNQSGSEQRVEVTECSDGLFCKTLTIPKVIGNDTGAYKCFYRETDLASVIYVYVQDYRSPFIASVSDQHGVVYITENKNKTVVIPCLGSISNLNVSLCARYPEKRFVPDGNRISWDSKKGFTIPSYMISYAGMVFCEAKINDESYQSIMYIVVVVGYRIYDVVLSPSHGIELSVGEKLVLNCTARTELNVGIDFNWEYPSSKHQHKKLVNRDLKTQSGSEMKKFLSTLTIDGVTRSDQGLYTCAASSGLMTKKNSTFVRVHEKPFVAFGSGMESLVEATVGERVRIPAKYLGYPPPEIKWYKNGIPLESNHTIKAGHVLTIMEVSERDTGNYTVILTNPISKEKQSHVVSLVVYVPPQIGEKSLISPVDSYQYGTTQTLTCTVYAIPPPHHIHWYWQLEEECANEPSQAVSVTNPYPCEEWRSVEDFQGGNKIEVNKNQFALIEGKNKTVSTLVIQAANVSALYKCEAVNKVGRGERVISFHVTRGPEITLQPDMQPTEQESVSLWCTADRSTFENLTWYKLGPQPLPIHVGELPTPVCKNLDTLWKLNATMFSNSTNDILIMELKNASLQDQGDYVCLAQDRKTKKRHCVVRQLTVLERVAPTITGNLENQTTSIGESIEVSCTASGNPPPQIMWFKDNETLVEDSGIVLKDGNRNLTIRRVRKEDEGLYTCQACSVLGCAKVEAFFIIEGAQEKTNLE
Series [3] concerns the molecule itself. Description: SDS-PAGE after treatment with DTT.

B1: hVEGF-Csf C137A, from transfected 293T cell medium (ligand, human, UniProt P49767 112-227, looked up)
chain: AHYNTEILKSIDNEWRKTQCMPREVAIDVGKEFGVATNTFFKPPCVSVYRCGGCCNSEGLQCMNTSTSYLSKTLFEITVPLSQGPKPVTISFANHTSCRCMSKLDVYRQVHSIIRR
For orientation: stoichiometry N means the number of molecules, sites or subunits per partner or assembly. B1: in series [1], the “stoichiometry N” value came to 2.

B2: purified human VEGF-Csf (ligand, UniProt P49767 112-227, looked up)
chain: AHYNTEILKSIDNEWRKTQCMPREVCIDVGKEFGVATNTFFKPPCVSVYRCGGCCNSEGLQCMNTSTSYLSKTLFEITVPLSQGPKPVTISFANHTSCRCMSKLDVYRQVHSIIRR
In general, Kd refers to a measure of binding affinity in units of concentration. Low readings indicate tighter binding, high ones weaker binding. In general, EC50 refers to the midpoint of the concentration-response curve. High values mean a less potent agent, low ones a more potent agent. Take B2: the equilibrium dissociation constant (Kd) in series [2] is 310 ± 50 nM. In addition, the EC50 came out at 2.2 ± 0.6 nM with VEGFR-3-Ig and 2.6 ± 0.3 nM with VEGFR-2-Ig.

B3: purified hVEGF-Csf C137A (ligand, human, UniProt P49767 112-227, looked up)
chain: AHYNTEILKSIDNEWRKTQCMPREVAIDVGKEFGVATNTFFKPPCVSVYRCGGCCNSEGLQCMNTSTSYLSKTLFEITVPLSQGPKPVTISFANHTSCRCMSKLDVYRQVHSIIRR
The molecule B3 came in with a Kd in series [2] of 280 ± 30 nM. For the same molecule, the results for the EC50 in the series with VEGFR-3-Ig and with VEGFR-2-Ig were 1.3 ± 0.3 nM and 2.7 ± 0.6 nM, respectively. Moreover, in series [3], the “stoichiometry N” value was 2.
